Reference: patent US20230227406

Molecular target: PTEN (substrate in the in vitro ubiquitination reaction) (UniProt P60484)
Sequence (P60484 whole entry): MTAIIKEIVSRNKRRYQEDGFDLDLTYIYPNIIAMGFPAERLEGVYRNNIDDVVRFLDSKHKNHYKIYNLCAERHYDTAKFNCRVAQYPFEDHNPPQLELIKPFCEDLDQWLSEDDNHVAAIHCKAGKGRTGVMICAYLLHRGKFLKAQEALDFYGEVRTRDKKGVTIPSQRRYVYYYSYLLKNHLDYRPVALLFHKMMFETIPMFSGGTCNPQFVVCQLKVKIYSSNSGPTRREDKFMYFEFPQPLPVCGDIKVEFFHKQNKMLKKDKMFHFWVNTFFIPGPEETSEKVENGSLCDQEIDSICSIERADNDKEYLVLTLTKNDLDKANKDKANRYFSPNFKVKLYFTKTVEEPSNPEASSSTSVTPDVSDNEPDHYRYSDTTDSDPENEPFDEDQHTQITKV

In the case of “WWP1 ligase (recombinant, Ubiquigent #63-0034-025)”, the “in vitro ubiquitination reaction, TMT LC-MS/MS of ubiquitin sites on PTEN” value is reported as “Specific ubiquitin sites on PTEN demonstrate greater occupancy (e.g., K237 and K342) when K27-only ubiquitin is used in the reaction vs wild type ubiquitin” and the “in vitro ubiquitination reaction, western blot using an anti-ubiquitin antibody” value is reported as “in the presence of K27 only ubiquitin, PTEN substrate ubiquitin is preferred. PTEN is readily ubiquitinated with non-chain forming ubiquitin”.
